Measured values published in patent US20180118802A1.

How the values were obtained:
8D6 CR12 (human) = 8D6 CR12 (human) (UniProt Q9NPF0); test: solid-phase binding assay (FIG. 10)
[1] = target: CR pair used to test the MatRAP1 truncations (not named); test: solid-phase binding assay of truncated variants (FIG. 9)
LRP2 CR89 (human) = LRP2 CR89 (human) (UniProt P98164); test: solid-phase binding assay, CR protein coated, anti-RAP detection
Chain of LRP2 CR89 (human) (P98164 1025-1102): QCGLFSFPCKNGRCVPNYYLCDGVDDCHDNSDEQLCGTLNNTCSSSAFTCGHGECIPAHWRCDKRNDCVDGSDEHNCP

Chain of 8D6 CR12 (human) (Q9NPF0 other isoform, or with tags, fused parts or gaps): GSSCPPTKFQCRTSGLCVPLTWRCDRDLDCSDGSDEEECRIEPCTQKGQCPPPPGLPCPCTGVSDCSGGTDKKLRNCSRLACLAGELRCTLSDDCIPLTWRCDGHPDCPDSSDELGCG
Chain of MatRAP1 N-42 (P30533 other isoform, or with tags, fused parts or gaps): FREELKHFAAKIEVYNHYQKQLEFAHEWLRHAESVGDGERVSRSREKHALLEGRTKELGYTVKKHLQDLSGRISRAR

320RAP1 truncated form (identical truncations, amino acids 243-313) (from UniProt P30533 277-347) (ligand)
fold improvement in affinity against the full-length variant (8D6 CR12 (human)): 3.5 fold

MatRAP1 N-42 (from UniProt P30533 277-353) (ligand)
fold increase in affinity over the full-length d3 variant [1]: 3 fold

MatRAP1 amino acids 243-313 (best truncated variant, 71 amino acids) (from UniProt P30533 277-347) (ligand)
fold increase in affinity over MatRAP1 N-42 [1]: 4 fold
fold increase in affinity over the full-length d3 variant [1]: 12 fold

MegaRAP1 d3 Y249H (from UniProt P30533 235-353) (ligand)
% max (LRP2 CR89 (human)): 35%
